Test results taken from US20180016348A1 (Janssen / Centocor, published 2018).

Assays:
[1] = molecular target: T1, neuraminidase (NA) of H1N1 A/New Caledonia/20/1999 (influenza A virus H1N1 A/New …); assay: cell-based or functional assay
[2] = molecular target: T2, neuraminidase (NA) of H1N1 A/Mississippi/3/2001 (influenza A virus H1N1 …); assay: cell-based or functional assay
[3] = molecular target: T1, neuraminidase (NA) of H1N1 A/New …; assay: cell-based or functional assay; remark: listed apart in the source
[4] = molecular target: T2, neuraminidase (NA) of H1N1 …; assay: cell-based or functional assay; remark: listed apart in the source
[5] = molecular target: human FcγRIIIa receptor (V158) (human, UniProt P08637 17-254); assay: cell-based or functional assay
Sequence of human FcγRIIIa receptor (V158) (P08637 17-254 F176V limits assumed): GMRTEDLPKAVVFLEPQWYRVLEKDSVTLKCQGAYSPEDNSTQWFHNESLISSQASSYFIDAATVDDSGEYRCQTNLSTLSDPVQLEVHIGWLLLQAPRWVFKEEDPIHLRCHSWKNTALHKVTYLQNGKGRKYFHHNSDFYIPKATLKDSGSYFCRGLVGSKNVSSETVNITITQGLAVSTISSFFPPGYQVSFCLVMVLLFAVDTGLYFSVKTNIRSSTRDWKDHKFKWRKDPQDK

[6] = molecular target: T3, neuraminidase (NA) of H1N1 A/Puerto Rico/8/1934 (influenza A virus H1N1 A/Puerto …, UniProt P03468 1-454); assay: flow cytometry on NA-transfected 293-F cells
T3 construct: whole, on cells
T3 sequence (P03468 whole entry): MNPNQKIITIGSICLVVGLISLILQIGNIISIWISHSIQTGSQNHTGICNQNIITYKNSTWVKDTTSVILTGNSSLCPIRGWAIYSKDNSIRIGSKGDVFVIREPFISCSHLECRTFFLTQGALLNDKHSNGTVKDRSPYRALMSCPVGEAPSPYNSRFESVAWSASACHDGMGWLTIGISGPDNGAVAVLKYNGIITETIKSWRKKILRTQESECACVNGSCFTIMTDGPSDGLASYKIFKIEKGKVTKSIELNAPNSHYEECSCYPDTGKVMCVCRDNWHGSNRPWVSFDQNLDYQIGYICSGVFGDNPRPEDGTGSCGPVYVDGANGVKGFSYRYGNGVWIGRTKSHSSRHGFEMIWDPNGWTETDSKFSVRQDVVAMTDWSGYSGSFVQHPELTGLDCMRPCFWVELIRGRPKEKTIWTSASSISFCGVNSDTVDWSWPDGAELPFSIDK

[7] = molecular target: neuraminidase (NA) of H3N2 A/Hong Kong/1/1968 (influenza A virus H3N2 A/Hong …, UniProt Q91MA2 1-469); assay: flow cytometry on 293-F cells transfected with NA; '-: no binding'
Sequence of neuraminidase (NA) of H3N2 A/Hong Kong/1/1968 (Q91MA2 whole entry): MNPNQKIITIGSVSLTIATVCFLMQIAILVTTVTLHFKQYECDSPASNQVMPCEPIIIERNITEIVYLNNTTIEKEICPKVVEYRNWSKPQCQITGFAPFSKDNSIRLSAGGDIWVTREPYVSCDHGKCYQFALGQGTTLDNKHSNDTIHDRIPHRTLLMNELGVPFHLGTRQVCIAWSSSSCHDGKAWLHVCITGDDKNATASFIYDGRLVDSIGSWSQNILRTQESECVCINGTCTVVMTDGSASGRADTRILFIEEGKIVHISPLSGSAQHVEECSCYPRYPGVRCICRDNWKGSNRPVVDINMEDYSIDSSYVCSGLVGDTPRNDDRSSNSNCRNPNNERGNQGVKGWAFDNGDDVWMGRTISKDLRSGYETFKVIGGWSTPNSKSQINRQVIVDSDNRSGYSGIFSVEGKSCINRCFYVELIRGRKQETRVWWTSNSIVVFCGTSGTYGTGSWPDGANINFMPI

[8] = molecular target: T4, neuraminidase (NA) of H3N2 A/Wisconsin/67/2005 (influenza A virus H3N2 …); assay: cell-based or functional assay
[9] = molecular target: T5, neuraminidase (NA) of H3N2 A/Brisbane/10/2007 (influenza A virus H3N2 …); assay: cell-based or functional assay
[10] = molecular target: T4, neuraminidase (NA) of H3N2 …; assay: cell-based or functional assay; remark: listed apart in the source
[11] = molecular target: T5, neuraminidase (NA) of H3N2 …; assay: cell-based or functional assay; remark: listed apart in the source

B1: CR12040 (antibody, V domains shown)
VH: QVQLVQSGAEVKKPGASVKVSCKASGYTFTNYYINWVRQAPGQGLEWMGRINPLHGGTGFAEKFQGRLTMTRDTSTSTVDMELSSLRSEDTAIYYCVKERDTTMATDYYGRSGCFDYWGQGTLVTVSS
VL: EIVLTQSPATLSLSPGERATLSCRASQSVRSYLAWYQQKPGQAPRLLIYDASNRATGIPARFSGSGSGTDFSLTISSLEPEDFAVYYCQQRSNWPITFGQGTRLEIK
EC50 of neuraminidase inhibition (NA-XTD assay, whole virus) [1]: > 100 µg/mL | EC50 of neuraminidase inhibition (NA-XTD assay, whole virus) [2]: > 100 µg/mL | IC50 of virus neutralization (VNA on MDCK cells) [3]: > 50 µg/mL | IC50 of virus neutralization (VNA on MDCK cells) [4]: > 50 µg/mL | ADCC reporter D/A ratio; A549 targets infected with H1N1 A/Brisbane/59/2007 [5]: 2.73 | ADCC reporter D/A ratio; A549 targets infected with H1N1 A/Mississippi/03/2001 [5]: 9.26 | ADCC reporter D/A ratio; A549 targets infected with H1N1 A/New Caledonia/20/1999 [5]: 3.19 | ADCC reporter D/A ratio; A549 targets infected with H5N1 A/Hong Kong/156/1997 [5]: 3.1 | ADCC reporter EC50; A549 targets infected with H1N1 A/Brisbane/59/2007 [5]: 3.83 µg/mL | ADCC reporter EC50; A549 targets infected with H1N1 A/Mississippi/03/2001 [5]: 0.06 µg/mL | ADCC reporter EC50; A549 targets infected with H1N1 A/New Caledonia/20/1999 [5]: 0.07 µg/mL | ADCC reporter EC50; A549 targets infected with H5N1 A/Hong Kong/156/1997 [5]: 1.22 µg/mL | binding result [6]: binds | binding result [7]: no binding (tested: 5 µg/ml)

B2: CR12042 (antibody, V domains shown)
VH: EVQLVESGAEVRKPGSSVKVSCTASGDTFSSYTITWVRQAPGQGLEWMGEIIPIFGTANYAQKFQGRVTLTADESTTTAYMDLSSLRSEDTAVYYCARGPDNHSDRYFYYGMDVWGQGTTVTVSS
VL: EIVLTQSPLSLPVTPGEPASISCRSSQSLLHSTGNNYLDWYLQKPGQSPQLLIYLGSNRASGVPDRFSGSGSGTDFTLKISRVEAEDVGVYYCMQALQTPRTFGQGTKVDIK
EC50 of neuraminidase inhibition (NA-XTD assay, whole virus) [1]: 0.18 µg/mL | EC50 of neuraminidase inhibition (NA-XTD assay, whole virus) [2]: 0.12 µg/mL | EC50 of neuraminidase inhibition (NA-XTD assay, whole virus; one experiment) [8]: 1.87 µg/mL | EC50 of neuraminidase inhibition (NA-XTD assay, whole virus; one experiment) [9]: 4.8 µg/mL | IC50 of virus neutralization (VNA on MDCK cells) [3]: 0.2 µg/mL | IC50 of virus neutralization (VNA on MDCK cells) [4]: 0.2 µg/mL | IC50 of virus neutralization (VNA on MDCK cells; one experiment) [10]: > 100 µg/mL | IC50 of virus neutralization (VNA on MDCK cells; one experiment) [11]: > 100 µg/mL | ADCC reporter D/A ratio; A549 targets infected with H1N1 A/Brisbane/59/2007 [5]: 6.11 | ADCC reporter D/A ratio; A549 targets infected with H1N1 A/Mississippi/03/2001 [5]: 17.4 | ADCC reporter D/A ratio; A549 targets infected with H1N1 A/New Caledonia/20/1999 [5]: 17.7 | ADCC reporter D/A ratio; A549 targets infected with H5N1 A/Hong Kong/156/1997 [5]: 6.87 | ADCC reporter EC50; A549 targets infected with H1N1 A/Brisbane/59/2007 [5]: 0.08 µg/mL | ADCC reporter EC50; A549 targets infected with H1N1 A/Mississippi/03/2001 [5]: 0.14 µg/mL | ADCC reporter EC50; A549 targets infected with H1N1 A/New Caledonia/20/1999 [5]: 0.28 µg/mL | ADCC reporter EC50; A549 targets infected with H5N1 A/Hong Kong/156/1997 [5]: 0.01 µg/mL | binding result [6]: binds | binding result [7]: no binding (tested: 5 µg/ml)

B3: CR12044 (antibody, V domains shown)
VH: EVQLVQSGSEVRKPGSTVKVSCKGSGGAFRTSVIHWVRQAPGQGLRWMGGIIPTLDTANHAQEFQGRATITADESTTTAYLELSSLRSEDSAVYYCATDYGGNSDRLGSYSFAFDVWGQGTTVTVSS
VL: not shown
EC50 of neuraminidase inhibition (NA-XTD assay, whole virus) [1]: 0.17 µg/mL | EC50 of neuraminidase inhibition (NA-XTD assay, whole virus) [2]: 0.96 µg/mL | IC50 of virus neutralization (VNA on MDCK cells) [3]: 0.13 µg/mL | IC50 of virus neutralization (VNA on MDCK cells) [4]: 0.37 µg/mL | ADCC reporter D/A ratio; A549 targets infected with H1N1 A/Brisbane/59/2007 [5]: 6.49 | ADCC reporter D/A ratio; A549 targets infected with H1N1 A/Mississippi/03/2001 [5]: 20.2 | ADCC reporter D/A ratio; A549 targets infected with H1N1 A/New Caledonia/20/1999 [5]: 17.5 | ADCC reporter D/A ratio; A549 targets infected with H5N1 A/Hong Kong/156/1997 [5]: 2.37 | ADCC reporter EC50; A549 targets infected with H1N1 A/Brisbane/59/2007 [5]: 0.28 µg/mL | ADCC reporter EC50; A549 targets infected with H1N1 A/Mississippi/03/2001 [5]: 5.19 µg/mL | ADCC reporter EC50; A549 targets infected with H1N1 A/New Caledonia/20/1999 [5]: 0.93 µg/mL | ADCC reporter EC50; A549 targets infected with H5N1 A/Hong Kong/156/1997 [5]: 11.6 µg/mL | binding result [6]: binds | binding result [7]: no binding (tested: 5 µg/ml)

B4: CR12041 (antibody, V domains shown)
VH: EVQLVQSGAEVKKPGASVKVSCKAAGYTFTNYYLHWVRQAPGQGLESMGIINPSSGGTIYAQKFQGRVTMTRDTSTSTVFMELSSLTSEDTAVYYCARAGEGKSRFGEGKLRYFYYGMDVWGQGTTVTVSS
VL: not shown
EC50 of neuraminidase inhibition (NA-XTD assay, whole virus) [1]: > 100 µg/mL | EC50 of neuraminidase inhibition (NA-XTD assay, whole virus) [2]: > 100 µg/mL | IC50 of virus neutralization (VNA on MDCK cells) [3]: 0.74 µg/mL | IC50 of virus neutralization (VNA on MDCK cells) [4]: 0.59 µg/mL | ADCC reporter D/A ratio; A549 targets infected with H1N1 A/Brisbane/59/2007 [5]: 2.15 | ADCC reporter D/A ratio; A549 targets infected with H1N1 A/Mississippi/03/2001 [5]: 8.38 | ADCC reporter D/A ratio; A549 targets infected with H1N1 A/New Caledonia/20/1999 [5]: 4.08 | ADCC reporter D/A ratio; A549 targets infected with H5N1 A/Hong Kong/156/1997 [5]: 5.48 | ADCC reporter EC50; A549 targets infected with H1N1 A/Brisbane/59/2007 [5]: 1.97 µg/mL | ADCC reporter EC50; A549 targets infected with H1N1 A/Mississippi/03/2001 [5]: 0.58 µg/mL | ADCC reporter EC50; A549 targets infected with H1N1 A/New Caledonia/20/1999 [5]: 1.61 µg/mL | ADCC reporter EC50; A549 targets infected with H5N1 A/Hong Kong/156/1997 [5]: 1.09 µg/mL | binding result [7]: no binding (tested: 0.5 µg/ml)
